The source of these data is US20110009597A1, “RECOMBINANT GANODERMA LUCIDIUM IMMUNOMODULATORY PROTEIN (rLZ-8) AND USES THEREOF” (priority 2008, published 2011).

The test system of one series is S180 cells. Put plainly: Mouse transplanted S180 subcutaneous tumor inhibition. The note with it: 10 days. The class given is in vivo, Mice. The method, then:
Mice, 18-22 g, males and females were equally divided, provided by Jilin University Laboratory Animal Center; Mice Ehrlich ascites cells strain, provided by our laboratory S180; Cyclophosphamide (CTX), offered by Jiangsu Hengrui Medicine Co., Ltd., lot number: 06101921. S180 ascites tumors and solid tumors in experiment group were divided into normal control group, negative control group, positive control group, rLZ-8 low-dose treatment group (0.25 mg·kg^−1), rLZ-8 medium-dose treatment group (0.5 mg·kg^−1), rLZ-8 high-dose treatment group (1 mg·kg^−1). For each group 10 mice.
Select well-growing S180 cells, dilute appropriately with sterile saline into a tumor cell suspension, cell counts for 10^7·L^−1, under the right armpit of each mouse inoculated subcutaneously 0.2 ml (except for the normal control group). Treatment after 24 h of vaccination. Normal control group and negative control group were given saline 0.2 ml·each^−l·d^−1, intraperitoneal injection; positive control group were given cyclophosphamide 20 mg·kg^−1, intraperitoneal injection. rLZ-8 treatment groups were given doses of tail venous injection respectively, 0.2 ml·each^−1·d^−1, in 10 consecutive days. Draw blood from orbital venous plexus 10 days before and after medication respectively, sent to Jilin University No. 1 Hospital clinical laboratory to test and analyze the number of WBC. Kill all mice the next day of drug withdrawal at cervical dislocation, dissect anatomically and take out the tumors, weigh tumors, calculate the inhibition rate using the following equation:
Inhibition rate (%)=(average tumore weight of the control group−average tumore weight of the experiment group)/average tumor weight of the control group×100%

Another series has as its system HL-60. In words: Annexin V-FITC flow cytometry, apoptosis of HL-60. It is filed as cell-based. Particulars: Annexin V/PI. As for the experimental part: FACS Calibur flow cytometry, U.S. Becton-Dickinson.Coompany. NB4, HL-60. rLZ-8 is prepared with IMDM culture medium containing 2% FCS into the preparation of 0.1 μg·ml^−1, 0.5 μg·ml^−1, 2.5 μg·ml^−1, arsenic trioxide (As2O3) 0.5 μg·ml^−1 AnnexinV-FITC kit: combining buffer solution 4×; Propidium iodide solution (PI), 20 μg·ml−1, 0.2 ml; recombinant human Annexin V/FITC, 0.1 ml.
Establish NB4 normal control group, positive drug group (As2O3 0.5 μg·ml^−1), protein low-dose group (0.1 μg·ml^−1), medium-dose group (0.5 μg·ml^−1), high-dose group, (2.5 μg·ml^−1); establish HL-60 normal control group, protein low-dose group (0.1 μg·ml^−1), medium-dose group (0.5 μg·ml^−1), high-dose group, (2.5 μg·ml^−1).
Mix NB4 and HL-60 cell into 24-orifice plate respectively, 1 ml/hole supply rLZ-8 in different concentrates, set 3-orifice multipunches for each group. Put them in 37° C., 5% CO2 incubator for 24 h, collect the cells of each concentrate, washes the cells twice with pre-cooled PBS 4° C., with 250 μl binding buffer solution re-suspending cells and regulates the cell density to 1×10^6/ml, taking out 100 μl to 5 ml streaming tube, and add 5 μl Annexin V/FITC and 10 μl 20 μg·ml^−1 PI solution, after mixing put it in room temperature and lucifuged hatching 15 min, add 400 μl PBS by flow cytometry analysis.

The next series has as its system human erythrocyte. It is filed as cell-based. As for the experimental part:
rLZ-8 prepares 5% of glucose solution into the preparation of 1 mg·ml^−1; blood cell suspension preparation: human blood 4 ml, 1000 r/min centrifugal 10 min, clears supernatant. […] Prepare the obtained erythrocyte with 5% glucose solution into 2% suspension for experiment.
Get 28 clean test tubes and number them, No. 1-5 for rLZ-8 drug group, No.6 for negative control group (5% glucose solution), No. 7 for positive control tube (distilled water), and a total of 4 parallel comparison tubes. By supplying 2% erythrocyte suspension, 5% glucose or distilled water in turn, shaking, put them into incubators 37° C.±0.5° C. immediately for incubation. Observe them every 15 min, 1 h after observe them once for 3 hours. Finishing the observation, put all the solution from the tubes into centrifugal drying tubes, 1500 r, 25 min. Clear the supernatant, read the blank distilled water tube for OD value to calculate the rate of hemolysis.

A further series relates to NB4. In words: PI single stained flow cytometry, apoptosis of NB4. It is filed as cell-based. As for the experimental part: Fluorescence microscope, model Leica ASLMD, K562, NB4. rLZ-8 is classified into high, medium and low three-dose groups respectively, now we prepare them with IMDM culture medium containing 2% FCS into the preparation of 2.5 μg·ml^−1, 0.5 μg/ml, 0.1 μg·ml^−1. […] (PI) 50 μg·ml ^−1.
Establish K562 as the normal control group, rLZ-8 low-dose group (0.1 μg·ml^−1), rLZ-8 medium dose group (0.5 μg·ml^−1), rLZ-8 high-dose group, (2.5 μg·ml^−1); set NB4 as the normal control group, rLZ-8 low-dose group (0.1 μg·ml^−1), rLZ-8 medium dose group (0.5 μg·ml^−1), rLZ-8 high-dose group, (2.5 μg·ml^−1).
Mix K562 and NB4 cells into 24-orifice plate respectively, and supply rLZ-8 in different concentrates, 1 ml/orifice, set 3-orifice multipunches for each group. Put them in 37° C., 5% CO2 incubator for 24 h, collect the cells of each concentrate, PBS washes twice and regulates the cell density to 1×10^6/ml, 70% ice ethanol fixation, adjusts to −20° C. and stays overnight. Wash the cells with PBS twice after fixing the cells, add PI (end density 50 μg·ml^−1) for room temperature and lucifuged hatching 10 min, 1000 r·min^−1 centrifuge 5 min, clear supernatant with disposable 400μ. IPBS re-suspension precipitation. And test on computer in 1 h.

Setting [1] is: rLZ-8 0.25 mg·kg^−1 tail venous injection.
The mark [2] stands for this setting: rLZ-8 0.5 mg·kg^−1 tail venous injection.
The mark [3] stands for this setting: rLZ-8 1 mg·kg^−1 tail venous injection.

B1: rLZ-8: Recombinant Ganoderma Lucidum Immune Regulatory Protein expressed in Pichia pastoris (protein, UniProt P14945 2-111, looked up)
Immunomodulatory protein Ling …: SDTALIFRLAWDVKKLSFDYTPNWGRGNPNNFIDTVTFPKVLTDKAYTYRVAVSGRNLGVKPSYAVESDGSQKVNFLEYNSGYGIADTNTIQVFVVDPDTNNDFIIAQWN
Take B1: the “Inhibition rate (%)” value in the series on S180 cells (setting [1]) amounted to 16.8%; in the series with S180 cells (setting [2]) it was 25.7%; in the series with S180 cells (setting [3]), 45.5%. Moreover, the entries for the “Tumor weight” value with S180 cells (setting [1]), in the series with S180 cells (setting [2]) and in the series on S180 cells (setting [3]) were 0.84 ± 0.03 g, 0.75 ± 0.02 g and 0.55 ± 0.03 g, respectively. The Apoptosis rate in the series with HL-60 (HL-60, rLZ-8 0.1 μg·ml−1, 24 h) was 30.5%; in the series with HL-60 (HL-60, rLZ-8 0.5 μg·ml−1, 24 h), 40.7%; in the series with HL-60 (HL-60, rLZ-8 2.5 μg·ml−1, 24 h) it was 47.7%; with NB4 (NB4, rLZ-8 0.1 μg·ml^−1, 24 h), 9.23%; in the series on NB4 (NB4, rLZ-8 0.5 μg·ml^−1, 24 h) it was 27.51%; in the series on NB4 (NB4, rLZ-8 2.5 μg·ml^−1, 24 h) it was 38.60%. In addition, the hmolytic rate in the series with human erythrocyte is less than 5%.
